{
  "source": "the RNAGym collection of RNA variant scans (doi:10.7554/elife.80360)",
  "parents": {"B1": {"name": "Hammerhead Ribozyme (parent)", "chain": "ACCGGAUGUGCUUUCCGGUCUGAUGAGUCCGUGAGGACGAAACAG"}},
  "data": [
    {"variants_of": "B1", "assay": "self-cleavage, relative activity (ratio to wild type); higher = more cleavage; co-transcriptional", "values": [
      {"variant": "ACUGGAUGUGCUUUCCGGUGUGAUGAGUCCGUGAGGACGAAACAG", "note": "[C3U C20G]", "self-cleavage": 0.306},
      {"variant": "ACCGGAUGUGCUUUCCGGUCUGAUGAGUCCGUGAGGACGACACGG", "note": "[A41C A44G]", "self-cleavage": 0.594},
      {"variant": "ACCGGAUGUGCUUUCCCGUCUGAUGAGUCCGUGAGGACUAAACAG", "note": "[G17C G39U]", "self-cleavage": 0.33},
      {"variant": "ACCGGAUGUGCUUUCCGGUCUGAUGAGUCCGUAAGGACGAAACGG", "note": "[G33A A44G]", "self-cleavage": 1.59},
      {"variant": "CCCGGAUGUGCUUUCCGGUCUGAUGAGUCCGUGUGGACGAAACAG", "note": "[A1C A34U]", "self-cleavage": 0.384},
      {"variant": "ACCGUAUGUGCUUUGCGGUCUGAUGAGUCCGUGAGGACGAAACAG", "note": "[G5U C15G]", "self-cleavage": 1.15},
      {"variant": "ACAGGAUGUGCUUUCCGGUCUGAUGAGUCAGUGAGGACGAAACAG", "note": "[C3A C30A]", "self-cleavage": 0.557},
      {"variant": "ACCGGAUGUGCUUUCCGGUCUGAUGAGUCCGUGUGGACGAAAAAG", "note": "[A34U C43A]", "self-cleavage": 0.393},
      {"variant": "ACCGGAUGUGGUUUCCGGUCUGAUGAGUCCGCGAGGACGAAACAG", "note": "[C11G U32C]", "self-cleavage": 1.12},
      {"variant": "ACCGCAUGUGCUUUCCGGUCUGAUGAGUCCGUGAGGACGAAACGG", "note": "[G5C A44G]", "self-cleavage": 0.831},
      {"variant": "ACCGGAUGUGCUUUCCGGUCUGUUGAGUCCGUGAGGACAAAACAG", "note": "[A23U G39A]", "self-cleavage": 0.331},
      {"variant": "ACCGGAUGUGCCUUCCGGUCUGAUGUGUCCGUGAGGACGAAACAG", "note": "[U12C A26U]", "self-cleavage": 0.854},
      {"variant": "ACCGGAUGUACUUUCCGGUCUGAUGAGUCCGUGAGGACGUAACAG", "note": "[G10A A40U]", "self-cleavage": 0.298},
      {"variant": "ACAGGAUGUGCUUUCCGGUCUGAUUAGUCCGUGAGGACGAAACAG", "note": "[C3A G25U]", "self-cleavage": 0.282},
      {"variant": "ACCGGACGUGCUUUCCGCUCUGAUGAGUCCGUGAGGACGAAACAG", "note": "[U7C G18C]", "self-cleavage": 0.342},
      {"variant": "ACCGGAUGUGCUUUCCGGUCUGAUGAGUCCGCAAGGACGAAACAG", "note": "[U32C G33A]", "self-cleavage": 0.924},
      {"variant": "ACCGGAUGUGCUUUCGGGUCUGAUGAGUCCGGGAGGACGAAACAG", "note": "[C16G U32G]", "self-cleavage": 0.882},
      {"variant": "ACCGGAUGUGCUUUACGGUCUGAUGAGUCCGUUAGGACGAAACAG", "note": "[C15A G33U]", "self-cleavage": 0.893},
      {"variant": "ACCGGAUGUGCUUUCCGGUCUGACGAGUCCGGGAGGACGAAACAG", "note": "[U24C U32G]", "self-cleavage": 0.802},
      {"variant": "ACCGGUUGUGCUUUCCGGUCUGAUGAGUCCGUGAGGACUAAACAG", "note": "[A6U G39U]", "self-cleavage": 0.364},
      {"variant": "ACCGGAUGUGCUUUCCGGUUUAAUGAGUCCGUGAGGACGAAACAG", "note": "[C20U G22A]", "self-cleavage": 0.338},
      {"variant": "ACCGGAUCUGCUUUCCGUUCUGAUGAGUCCGUGAGGACGAAACAG", "note": "[G8C G18U]", "self-cleavage": 0.611},
      {"variant": "ACCGGAUGUGCUUUCCGGUCUGAUGAGUCCGUGAGCACGAAUCAG", "note": "[G36C A42U]", "self-cleavage": 0.286},
      {"variant": "ACCGGAUGUGCUUUCCGGUCUGAUGAGUCCUUGAGCACGAAACAG", "note": "[G31U G36C]", "self-cleavage": 0.568},
      {"variant": "ACCGGAUGUGCUUUCCGGUCUGAUGGGUCCGUGAGCACGAAACAG", "note": "[A26G G36C]", "self-cleavage": 0.307},
      {"variant": "ACCGGAGGUGCUUUCCGGUCUGAUGAGUCCGUGAGGACGUAACAG", "note": "[U7G A40U]", "self-cleavage": 0.401},
      {"variant": "ACCGGAUGUGCUUUCCGGUCUGAUGCGUCCGUGGGGACGAAACAG", "note": "[A26C A34G]", "self-cleavage": 0.349},
      {"variant": "ACCUGAUGUGCUUUCCGGUCUGAUGAGUCCGUGAGGACGUAACAG", "note": "[G4U A40U]", "self-cleavage": 0.297},
      {"variant": "ACCGGAUGUGCUUGCCGGUCUGAUGAGUCCGUGAGGACGAAACAU", "note": "[U14G G45U]", "self-cleavage": 0.776},
      {"variant": "ACCGGAUGUGAUUUCCGGUCUGAUGAGUCCGUGAGGACGUAACAG", "note": "[C11A A40U]", "self-cleavage": 0.29},
      {"variant": "ACCGGAUGUGAUUUCCGGUCUGAUGAGUCCGUGAGGACGGAACAG", "note": "[C11A A40G]", "self-cleavage": 0.346},
      {"variant": "ACCGGAUGUGCUAUCCGGUCUGAUGAGCCCGUGAGGACGAAACAG", "note": "[U13A U28C]", "self-cleavage": 1.58},
      {"variant": "ACCGGAUGUGCUUUCCGGUCUGAUGAGUCCGUGAGGACGCAAUAG", "note": "[A40C C43U]", "self-cleavage": 0.347},
      {"variant": "ACCGGAUGUGCUUUCCGGUCUGAUGAGUCAGUGAGGACGAAAAAG", "note": "[C30A C43A]", "self-cleavage": 0.293},
      {"variant": "ACCGGAUGUGCUUUCUGCUCUGAUGAGUCCGUGAGGACGAAACAG", "note": "[C16U G18C]", "self-cleavage": 0.529},
      {"variant": "ACCGGAUGUGCUAUCAGGUCUGAUGAGUCCGUGAGGACGAAACAG", "note": "[U13A C16A]", "self-cleavage": 1.49},
      {"variant": "ACCGGAUGUGCUUUCCGGUCUGAUGAGUGCGUGCGGACGAAACAG", "note": "[C29G A34C]", "self-cleavage": 0.56},
      {"variant": "ACCGGAUGUGCUUUCCGGUCUGAUGAGACCGUGAGGACGAAAGAG", "note": "[U28A C43G]", "self-cleavage": 0.336},
      {"variant": "ACCGGAUGUGCUUUCCGCUCUGAUGAUUCCGUGAGGACGAAACAG", "note": "[G18C G27U]", "self-cleavage": 0.298},
      {"variant": "ACCGGAUGUGCUUUCCGGUCUGAUGAAUCCGCGAGGACGAAACAG", "note": "[G27A U32C]", "self-cleavage": 0.803},
      {"variant": "ACCGGAUGUGGUUUCCGGACUGAUGAGUCCGUGAGGACGAAACAG", "note": "[C11G U19A]", "self-cleavage": 0.296},
      {"variant": "ACCGGAUGUGCUUUCCGGUCGGAUGAGUCCGUGAGGCCGAAACAG", "note": "[U21G A37C]", "self-cleavage": 0.427},
      {"variant": "ACCGGAUGUGCUUUCCGGUCUGAUGAAUCCGUGGGGACGAAACAG", "note": "[G27A A34G]", "self-cleavage": 0.513},
      {"variant": "ACCGGUUGUGCUUUCCGGUCUGAUGAGUCCGUUAGGACGAAACAG", "note": "[A6U G33U]", "self-cleavage": 0.403},
      {"variant": "ACCGGAUGUGCUUUCCGGUCUGAUGAGUCCGUGGGGACUAAACAG", "note": "[A34G G39U]", "self-cleavage": 0.308},
      {"variant": "ACAGAAUGUGCUUUCCGGUCUGAUGAGUCCGUGAGGACGAAACAG", "note": "[C3A G5A]", "self-cleavage": 0.319},
      {"variant": "ACCGGAUGUGCUUUCCGGUCUGAUGAGCCCGUGAGGACGAAACCG", "note": "[U28C A44C]", "self-cleavage": 0.497},
      {"variant": "ACCGGAUGUCCUUUCCGGUCUGAUGAGUCCGUGAGCACGAAACAG", "note": "[G10C G36C]", "self-cleavage": 0.84},
      {"variant": "ACCGGAUGUUCCUUCCGGUCUGAUGAGUCCGUGAGGACGAAACAG", "note": "[G10U U12C]", "self-cleavage": 0.689},
      {"variant": "ACCGGAUGUGCUUUCCGGUCUAAUGAGUCCGUGAGGACGAAUCAG", "note": "[G22A A42U]", "self-cleavage": 0.321},
      {"variant": "ACCGGAUGUGAUUUCCGGUCUGACGAGUCCGUGAGGACGAAACAG", "note": "[C11A U24C]", "self-cleavage": 1.13},
      {"variant": "ACCGGAUGUGCUUUCCGGUCUGAUGAGUCCGUGAGGACGUUACAG", "note": "[A40U A41U]", "self-cleavage": 0.439},
      {"variant": "ACCGGAUGUGCUUUCCGGUCUGAUGAGGCCGUGAGGACUAAACAG", "note": "[U28G G39U]", "self-cleavage": 0.32},
      {"variant": "ACCGGAUCUGCUUUCCGGUCUGAUGAGUCCGUGAGGACGAAACUG", "note": "[G8C A44U]", "self-cleavage": 0.56},
      {"variant": "ACCGGAUGUGCUUUCCGGUCUGAUGAGUCUGUGAGGAGGAAACAG", "note": "[C30U C38G]", "self-cleavage": 0.598},
      {"variant": "ACCGGAGGUGCUUUCCGGUCUGAUGAGUCCGUGAGGAAGAAACAG", "note": "[U7G C38A]", "self-cleavage": 0.502},
      {"variant": "ACCAGAUGUGCUUUCUGGUCUGAUGAGUCCGUGAGGACGAAACAG", "note": "[G4A C16U]", "self-cleavage": 0.781}
    ]}
  ]
}
